# Test results: publication PMC3846777, “Characteristics and Function of Sulfur Dioxygenase in Echiuran Worm Urechis unicinctus” (PLoS ONE, 2013)
# Changes are numbered by the printed parent chain. In names and notes the source's numbering stands.
# B1: Del-3 (Urechis unicinctus) (protein)
# chain: MLSSVCGSLRRTLCNGSVLASKHPFLGRSNALKLETKPVCTRVMYRSYSANMHGQEVVFRQLFDNTSFTYTYLLGDAASKEAVLIDPVIELVDRDVRIVKELGLNLKYAVNTHVHADHVTGTGEIKKRIPTCKSVIAECSQAKADVFINEGDGIEFGQFKLECRSTPGHTDGCFTYVWHEKGMAFTGDALLIRGCGRTDFQQGSS
# notes: C-terminally truncated SDO, 615 bp from the start codon (205 residues, end calculated from printed size)
# B2: Del-2 (Urechis unicinctus) (protein)
# chain: MLSSVCGSLRRTLCNGSVLASKHPFLGRSNALKLETKPVCTRVMYRSYSANMHGQEVVFRQLFDNTSFTYTYLLGDAASKEAVLIDPVIELVDRDVRIVKELGLNLKYAVNTHVHADHVTGTGEIKKRIPTCKSVIAECSQAKADVFINEGDGIEFGQF
# notes: C-terminally truncated SDO, 477 bp from the start codon (159 residues, end calculated from printed size)
# B3: Del-4 (Urechis unicinctus) (protein)
# chain: MLSSVCGSLRRTLCNGSVLASKHPFLGRSNALKLETKPVCTRVMYRSYSANMHGQEVVFRQLFDNTSFTYTYLLGDAASKEAVLIDPVIELVDRDVRIVKELGLNLKYAVNTHVHADHVTGTGEIKKRIPTCKSVIAECSQAKADVFINEGDGIEFGQFKLECRSTPGHTDGCFTYVWHEKGMAFTGDALLIRGCGRTDFQQGSSEALYKSVHGKILSLPEQFILYPAHDYTGQTSTTVREEKNHNPRLTKPI
# notes: C-terminally truncated SDO, 759 bp from the start codon
# B4: U. unicinctus SDO (complete ORF, wild type) (Urechis unicinctus; D117E/H118A) (protein)
# chain: MLSSVCGSLRRTLCNGSVLASKHPFLGRSNALKLETKPVCTRVMYRSYSANMHGQEVVFRQLFDNTSFTYTYLLGDAASKEAVLIDPVIELVDRDVRIVKELGLNLKYAVNTHVHAEAVTGTGEIKKRIPTCKSVIAECSQAKADVFINEGDGIEFGQFKLECRSTPGHTDGCFTYVWHEKGMAFTGDALLIRGCGRTDFQQGSSEALYKSVHGKILSLPEQFILYPAHDYTGQTSTTVREEKNHNPRLTKPIDVFIRIMSELNLPYPKQLDRALPANMVCGIFDTESPPSKS
# B5: U. unicinctus SDO (complete ORF, wild type) (Urechis unicinctus) (protein)
# chain: B4 chain with E117D, A118H
# B6: Del-1 (Urechis unicinctus) (protein)
# chain: MLSSVCGSLRRTLCNGSVLASKHPFLGRSNALKLETKPVCTRVMYRSYSANMHGQEVVFRQLFDNTSFTYTYLLGDAASKEAVLIDPVIELVDRDVRIVKELGLNL
# notes: C-terminally truncated SDO, 318 bp from the start codon (106 residues, end calculated from printed size), lacks all metal sites
# Key:
# Experiment in all cases: oxygen consumption, Clark-type oxygen electrode (Oxytherm)
# Assay type in all cases: biochemical, Urechis unicinctus
# Settings in all cases: 0.1 M potassium phosphate pH 7.4, 25°C, O2 co-substrate, GSS^− prepared from GSH and acetonic sulfur
# [1] = substrate: N[C@@H](CCC(=O)N[C@@H](CSS)C(=O)NCC(=O)O)C(=O)O
# Description: oxygen consumption, Clark-type oxygen electrode (Oxytherm) on Del-3
# [2] = substrate: N[C@@H](CCC(=O)N[C@@H](CSS)C(=O)NCC(=O)O)C(=O)O; remark: listed apart in the source
# Description: oxygen consumption, Clark-type oxygen electrode (Oxytherm) on Del-2
# [3] = substrate: N[C@@H](CCC(=O)N[C@@H](CSS)C(=O)NCC(=O)O)C(=O)O; remark: listed apart in the source
# Description: oxygen consumption, Clark-type oxygen electrode (Oxytherm) on Del-4
# [4] = substrate: N[C@@H](CCC(=O)N[C@@H](CSS)C(=O)NCC(=O)O)C(=O)O; remark: listed apart in the source
# [5] = substrate: N[C@@H](CCC(=O)N[C@@H](CSS)C(=O)NCC(=O)O)C(=O)O; remark: listed apart in the source
# Description: oxygen consumption, Clark-type oxygen electrode (Oxytherm) on U. unicinctus SDO (complete ORF, wild type)
# [6] = substrate: N[C@@H](CCC(=O)N[C@@H](CSS)C(=O)NCC(=O)O)C(=O)O; remark: listed apart in the source
# Description: oxygen consumption, Clark-type oxygen electrode (Oxytherm) on Del-1
protein,measurement,setting,value
B1,Km,[1],104.6 ± 16.7 µM
same,Vmax,[1],0.98 ± 0.065 µmol/min/mg
same,kcat,[1],0.45 s⁻¹
B2,Km,[2],137.0 ± 17.2 µM
same,Vmax,[2],0.42 ± 0.024 µmol/min/mg
same,kcat,[2],0.16 s⁻¹
B3,Km,[3],83.0 ± 10.9 µM
same,Vmax,[3],1.23 ± 0.063 µmol/min/mg
same,kcat,[3],0.68 s⁻¹
B4,Km,[4],174.4 ± 16.8 µM
B5,Km,[5],82.5 ± 9.9 µM
same,Vmax,[5],1.74 ± 0.081 µmol/min/mg
same,kcat,[5],1.09 s⁻¹
B6,Km,[6],218.9 ± 33.5 µM
same,Vmax,[6],0.33 ± 0.014 µmol/min/mg
same,kcat,[6],0.09 s⁻¹
